Read-outs that look alike come from different tables or passages of the source.
T1: DDX1 (1–428) (human, UniProt Q92499 1-428)
T1 sequence: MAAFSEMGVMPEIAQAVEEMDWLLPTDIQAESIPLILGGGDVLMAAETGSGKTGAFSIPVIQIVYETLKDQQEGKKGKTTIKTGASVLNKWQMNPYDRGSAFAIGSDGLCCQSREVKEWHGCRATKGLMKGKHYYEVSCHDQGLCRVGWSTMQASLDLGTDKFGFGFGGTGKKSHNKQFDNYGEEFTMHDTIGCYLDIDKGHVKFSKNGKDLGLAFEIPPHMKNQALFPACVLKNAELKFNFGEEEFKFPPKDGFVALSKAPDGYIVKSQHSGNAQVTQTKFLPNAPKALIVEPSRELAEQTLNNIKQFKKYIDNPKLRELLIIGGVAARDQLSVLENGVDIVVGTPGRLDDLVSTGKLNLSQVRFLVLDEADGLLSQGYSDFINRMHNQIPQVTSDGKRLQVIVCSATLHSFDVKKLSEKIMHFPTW

B1: recombinant full-length human DDX1 (enzyme)
chain: MAAFSEMGVMPEIAQAVEEMDWLLPTDIQAESIPLILGGGDVLMAAETGSGKTGAFSIPVIQIVYETLKDQQEGKKGKTTIKTGASVLNKWQMNPYDRGSAFAIGSDGLCCQSREVKEWHGCRATKGLMKGKHYYEVSCHDQGLCRVGWSTMQASLDLGTDKFGFGFGGTGKKSHNKQFDNYGEEFTMHDTIGCYLDIDKGHVKFSKNGKDLGLAFEIPPHMKNQALFPACVLKNAELKFNFGEEEFKFPPKDGFVALSKAPDGYIVKSQHSGNAQVTQTKFLPNAPKALIVEPSRELAEQTLNNIKQFKKYIDNPKLRELLIIGGVAARDQLSVLENGVDIVVGTPGRLDDLVSTGKLNLSQVRFLVLDEADGLLSQGYSDFINRMHNQIPQVTSDGKRLQVIVCSATLHSFDVKKLSEKIMHFPTWVDLKGEDSVPDTVHHVVVPVNPKTDRLWERLGKSHIRTDDVHAKDNTRPGANSPEMWSEAIKILKGEYAVRAIKEHKMDQAIIFCRTKIDCDNLEQYFIQQGGGPDKKGHQFSCVCLHGDRKPHERKQNLERFKKGDVRFLICTDVAARGIDIHGVPYVINVTLPDEKQNYVHRIGRVGRAERMGLAISLVATEKEKVWYHVCSSRGKGCYNTRLKEDGGCTIWYNEMQLLSEIEEHLNCTISQVEPDIKVPVDEFDGKVTYGQKRAAGGGSYKGHVDILAPTVQELAALEKEAQTSFLHLGYLPNQLFRTF
B2: Alexa-488-labeled HIV-1 Rev protein (natural protein)
chain: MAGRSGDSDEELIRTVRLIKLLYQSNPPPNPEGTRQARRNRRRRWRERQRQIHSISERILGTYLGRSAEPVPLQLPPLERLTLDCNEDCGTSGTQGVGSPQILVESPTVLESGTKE
modifications: Alexa-488 label (site not stated)

How the values were obtained:
[1] = target: the molecule itself; assay: SEC
[2] = target: B1; assay: fluorescence polarisation
[3] = target: B1; assay: fluorescence polarisation; remark: listed apart in the source
[4] = target: T1, DDX1 (1–428); assay: fluorescence polarisation
[5] = target: bovine serum albumin (bovine, UniProt P02769 25-607); assay: fluorescence polarisation
[6] = target: B1; assay: fluorescence polarisation; remark: listed apart in the source

Sequence of bovine serum albumin (P02769 25-607): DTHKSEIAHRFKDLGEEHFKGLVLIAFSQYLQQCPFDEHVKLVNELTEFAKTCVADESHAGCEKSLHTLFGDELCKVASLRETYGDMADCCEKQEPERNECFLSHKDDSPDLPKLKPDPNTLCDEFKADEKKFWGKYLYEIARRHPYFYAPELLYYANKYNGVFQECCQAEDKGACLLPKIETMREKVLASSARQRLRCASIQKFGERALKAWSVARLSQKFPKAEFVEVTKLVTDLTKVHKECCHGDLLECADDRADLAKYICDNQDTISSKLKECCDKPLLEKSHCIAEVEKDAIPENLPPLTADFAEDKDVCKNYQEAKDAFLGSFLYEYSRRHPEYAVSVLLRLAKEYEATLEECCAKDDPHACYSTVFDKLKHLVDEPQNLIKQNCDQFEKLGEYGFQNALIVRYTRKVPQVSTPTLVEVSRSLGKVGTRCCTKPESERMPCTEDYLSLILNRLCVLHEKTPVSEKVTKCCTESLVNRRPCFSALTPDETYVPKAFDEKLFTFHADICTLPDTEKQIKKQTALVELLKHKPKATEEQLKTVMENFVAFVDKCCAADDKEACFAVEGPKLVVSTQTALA

Binder | binding result [1] | Kd [2] | Kd [3] | Kd [4] | Kd [5] | Kd [6]
B1 | binds |  |  |  |  | 
B2 |  | 14.7 nM | 36 nM | 43 nM | > 500 nM | 53 nM

— paper PMC3249508 (Journal of Molecular Biology, 2011)
